Results as given in the supplement of paper PMC10065799, “High-throughput profiling of sequence recognition by tyrosine kinases and SH2 domains using bacterial peptide display” (eLife, 2023).

Tests used:
c-Src SH2 = experiment: SH2 binding enrichment of the phosphorylated peptide, bacterial display (enrichment ratio); higher = better substrate or ligand; peptides without Tyr show the background
Grb2 SH2 = Grb2 SH2 (UniProt P62993); experiment: as above
SHP2-C SH2 = experiment: as above
Fer (mouse) = experiment: phosphorylation enrichment, bacterial display (enrichment ratio); higher = better substrate or ligand; peptides without Tyr show the background
Fyn = Fyn (UniProt P06241); experiment: as above
Sequence of Fyn (P06241 whole entry, looked up): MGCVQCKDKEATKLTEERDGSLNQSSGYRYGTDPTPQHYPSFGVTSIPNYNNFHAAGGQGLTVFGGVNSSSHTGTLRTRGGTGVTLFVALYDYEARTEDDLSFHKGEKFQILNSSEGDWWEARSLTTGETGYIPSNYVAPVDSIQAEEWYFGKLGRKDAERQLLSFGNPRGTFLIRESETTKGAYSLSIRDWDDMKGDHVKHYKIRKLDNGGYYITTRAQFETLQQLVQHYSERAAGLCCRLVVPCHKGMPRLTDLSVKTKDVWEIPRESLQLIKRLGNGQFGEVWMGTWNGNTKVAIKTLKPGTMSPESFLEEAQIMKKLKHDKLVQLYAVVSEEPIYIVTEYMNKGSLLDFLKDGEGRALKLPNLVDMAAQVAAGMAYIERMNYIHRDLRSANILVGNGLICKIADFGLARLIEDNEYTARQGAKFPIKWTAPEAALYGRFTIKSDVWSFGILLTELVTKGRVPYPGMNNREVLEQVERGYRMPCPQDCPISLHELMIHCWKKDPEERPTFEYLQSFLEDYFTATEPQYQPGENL

FGFR3 = FGFR3 (UniProt P22607); experiment: as above
Jak2 = Jak2 (UniProt O60674); experiment: as above
Sequence of Jak2 (O60674 whole entry, looked up): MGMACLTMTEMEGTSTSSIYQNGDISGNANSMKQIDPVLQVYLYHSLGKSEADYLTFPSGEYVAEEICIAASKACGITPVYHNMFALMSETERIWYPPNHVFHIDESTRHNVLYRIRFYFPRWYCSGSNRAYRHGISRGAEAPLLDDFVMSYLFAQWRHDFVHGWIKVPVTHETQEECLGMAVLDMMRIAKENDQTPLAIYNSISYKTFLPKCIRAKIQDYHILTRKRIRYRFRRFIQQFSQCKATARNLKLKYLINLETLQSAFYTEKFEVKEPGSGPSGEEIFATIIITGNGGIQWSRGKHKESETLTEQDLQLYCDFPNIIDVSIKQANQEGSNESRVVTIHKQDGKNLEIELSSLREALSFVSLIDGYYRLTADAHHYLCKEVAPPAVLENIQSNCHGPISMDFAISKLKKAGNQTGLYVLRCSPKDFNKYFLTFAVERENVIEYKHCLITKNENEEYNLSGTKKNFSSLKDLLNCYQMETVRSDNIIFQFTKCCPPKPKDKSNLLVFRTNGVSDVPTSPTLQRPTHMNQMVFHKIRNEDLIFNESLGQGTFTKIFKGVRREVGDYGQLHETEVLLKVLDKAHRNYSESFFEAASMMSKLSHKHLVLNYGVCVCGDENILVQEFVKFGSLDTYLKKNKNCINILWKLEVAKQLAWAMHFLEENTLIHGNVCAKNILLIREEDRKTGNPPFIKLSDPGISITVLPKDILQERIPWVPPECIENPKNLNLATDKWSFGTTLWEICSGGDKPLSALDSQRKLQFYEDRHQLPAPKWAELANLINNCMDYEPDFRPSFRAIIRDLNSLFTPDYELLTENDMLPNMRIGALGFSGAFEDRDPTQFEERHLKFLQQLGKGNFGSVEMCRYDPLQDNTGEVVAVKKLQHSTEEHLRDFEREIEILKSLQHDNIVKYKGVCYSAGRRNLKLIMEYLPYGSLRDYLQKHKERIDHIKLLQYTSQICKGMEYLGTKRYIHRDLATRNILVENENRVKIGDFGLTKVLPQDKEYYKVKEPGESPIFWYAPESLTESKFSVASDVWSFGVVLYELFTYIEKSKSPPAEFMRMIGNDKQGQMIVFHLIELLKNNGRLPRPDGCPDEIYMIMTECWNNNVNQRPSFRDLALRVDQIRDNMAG

MERTK = MERTK (UniProt Q12866); experiment: as above
Fes = Fes (UniProt P07332); experiment: as above
FGFR1 = FGFR1 (UniProt P11362); experiment: as above
Sequence of FGFR1 (P11362 whole entry, looked up): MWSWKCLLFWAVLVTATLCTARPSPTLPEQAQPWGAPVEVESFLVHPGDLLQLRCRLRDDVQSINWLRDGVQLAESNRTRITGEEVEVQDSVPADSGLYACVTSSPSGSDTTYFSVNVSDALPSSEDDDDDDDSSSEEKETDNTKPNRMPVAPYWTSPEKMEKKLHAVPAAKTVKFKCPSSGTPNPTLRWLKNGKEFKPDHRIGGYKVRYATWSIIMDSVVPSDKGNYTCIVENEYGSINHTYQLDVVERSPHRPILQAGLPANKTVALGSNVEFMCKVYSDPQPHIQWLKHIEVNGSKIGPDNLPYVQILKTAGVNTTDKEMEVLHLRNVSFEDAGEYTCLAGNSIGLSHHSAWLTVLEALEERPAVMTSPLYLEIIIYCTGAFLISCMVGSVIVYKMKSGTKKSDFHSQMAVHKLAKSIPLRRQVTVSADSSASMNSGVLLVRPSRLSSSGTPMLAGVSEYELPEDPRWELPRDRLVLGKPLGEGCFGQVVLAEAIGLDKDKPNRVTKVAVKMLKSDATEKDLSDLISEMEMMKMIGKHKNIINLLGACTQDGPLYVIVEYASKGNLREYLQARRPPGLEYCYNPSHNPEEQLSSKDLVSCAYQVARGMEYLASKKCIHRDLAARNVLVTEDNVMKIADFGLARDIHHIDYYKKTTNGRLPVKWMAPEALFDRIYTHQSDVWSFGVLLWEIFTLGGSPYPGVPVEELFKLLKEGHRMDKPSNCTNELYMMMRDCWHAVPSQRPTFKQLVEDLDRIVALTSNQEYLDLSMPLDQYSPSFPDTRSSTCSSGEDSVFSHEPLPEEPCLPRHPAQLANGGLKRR

c-Src = experiment: as above
AncSZ = experiment: as above
EPHB2 = EPHB2 (UniProt P29323); experiment: as above
Sequence of EPHB2 (P29323 whole entry, looked up): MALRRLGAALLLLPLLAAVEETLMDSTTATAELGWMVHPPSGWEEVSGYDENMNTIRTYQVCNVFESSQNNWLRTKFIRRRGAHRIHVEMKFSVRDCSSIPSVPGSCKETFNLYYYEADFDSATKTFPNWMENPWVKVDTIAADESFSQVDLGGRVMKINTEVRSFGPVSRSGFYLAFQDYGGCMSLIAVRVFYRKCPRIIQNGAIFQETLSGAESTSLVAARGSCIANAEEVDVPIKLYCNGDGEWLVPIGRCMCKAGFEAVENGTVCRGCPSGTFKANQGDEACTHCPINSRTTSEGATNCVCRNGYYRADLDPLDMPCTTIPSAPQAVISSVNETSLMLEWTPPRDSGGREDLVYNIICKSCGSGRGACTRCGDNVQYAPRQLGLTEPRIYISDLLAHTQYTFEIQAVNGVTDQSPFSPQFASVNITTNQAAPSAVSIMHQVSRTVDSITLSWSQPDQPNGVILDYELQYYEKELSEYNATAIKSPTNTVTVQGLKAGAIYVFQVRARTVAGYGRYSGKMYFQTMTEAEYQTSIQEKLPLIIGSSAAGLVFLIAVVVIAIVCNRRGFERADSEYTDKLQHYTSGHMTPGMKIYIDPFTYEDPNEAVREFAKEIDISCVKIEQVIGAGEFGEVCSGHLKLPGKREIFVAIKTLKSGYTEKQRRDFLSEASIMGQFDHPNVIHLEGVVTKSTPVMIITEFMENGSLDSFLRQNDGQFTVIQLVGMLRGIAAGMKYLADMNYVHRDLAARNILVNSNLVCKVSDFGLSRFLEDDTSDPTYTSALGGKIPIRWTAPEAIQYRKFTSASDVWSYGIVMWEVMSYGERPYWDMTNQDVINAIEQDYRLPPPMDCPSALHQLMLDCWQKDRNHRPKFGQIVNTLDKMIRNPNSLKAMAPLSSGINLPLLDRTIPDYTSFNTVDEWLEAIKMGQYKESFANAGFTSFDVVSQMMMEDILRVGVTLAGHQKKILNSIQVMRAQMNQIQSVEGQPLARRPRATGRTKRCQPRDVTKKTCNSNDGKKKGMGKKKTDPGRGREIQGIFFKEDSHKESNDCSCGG

Hck = Hck (UniProt P08631); experiment: as above
Sequence of Hck (P08631 whole entry, looked up): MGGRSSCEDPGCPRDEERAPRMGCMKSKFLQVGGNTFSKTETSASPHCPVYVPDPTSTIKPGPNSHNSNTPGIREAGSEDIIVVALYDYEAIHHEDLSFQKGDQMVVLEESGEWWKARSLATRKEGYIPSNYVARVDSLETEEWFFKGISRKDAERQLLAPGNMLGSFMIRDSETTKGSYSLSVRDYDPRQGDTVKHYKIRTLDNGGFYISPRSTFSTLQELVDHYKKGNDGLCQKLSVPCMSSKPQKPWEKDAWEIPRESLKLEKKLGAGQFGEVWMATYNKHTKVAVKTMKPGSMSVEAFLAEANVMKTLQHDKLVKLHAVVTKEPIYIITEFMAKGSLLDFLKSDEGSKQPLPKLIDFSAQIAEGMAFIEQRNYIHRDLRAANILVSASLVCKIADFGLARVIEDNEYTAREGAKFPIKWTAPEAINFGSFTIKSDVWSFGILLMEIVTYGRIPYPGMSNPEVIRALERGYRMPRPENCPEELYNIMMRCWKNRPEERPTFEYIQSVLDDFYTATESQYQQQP

EPHB1 = EPHB1 (UniProt P54762); experiment: as above
Sequence of EPHB1 (P54762 whole entry, looked up): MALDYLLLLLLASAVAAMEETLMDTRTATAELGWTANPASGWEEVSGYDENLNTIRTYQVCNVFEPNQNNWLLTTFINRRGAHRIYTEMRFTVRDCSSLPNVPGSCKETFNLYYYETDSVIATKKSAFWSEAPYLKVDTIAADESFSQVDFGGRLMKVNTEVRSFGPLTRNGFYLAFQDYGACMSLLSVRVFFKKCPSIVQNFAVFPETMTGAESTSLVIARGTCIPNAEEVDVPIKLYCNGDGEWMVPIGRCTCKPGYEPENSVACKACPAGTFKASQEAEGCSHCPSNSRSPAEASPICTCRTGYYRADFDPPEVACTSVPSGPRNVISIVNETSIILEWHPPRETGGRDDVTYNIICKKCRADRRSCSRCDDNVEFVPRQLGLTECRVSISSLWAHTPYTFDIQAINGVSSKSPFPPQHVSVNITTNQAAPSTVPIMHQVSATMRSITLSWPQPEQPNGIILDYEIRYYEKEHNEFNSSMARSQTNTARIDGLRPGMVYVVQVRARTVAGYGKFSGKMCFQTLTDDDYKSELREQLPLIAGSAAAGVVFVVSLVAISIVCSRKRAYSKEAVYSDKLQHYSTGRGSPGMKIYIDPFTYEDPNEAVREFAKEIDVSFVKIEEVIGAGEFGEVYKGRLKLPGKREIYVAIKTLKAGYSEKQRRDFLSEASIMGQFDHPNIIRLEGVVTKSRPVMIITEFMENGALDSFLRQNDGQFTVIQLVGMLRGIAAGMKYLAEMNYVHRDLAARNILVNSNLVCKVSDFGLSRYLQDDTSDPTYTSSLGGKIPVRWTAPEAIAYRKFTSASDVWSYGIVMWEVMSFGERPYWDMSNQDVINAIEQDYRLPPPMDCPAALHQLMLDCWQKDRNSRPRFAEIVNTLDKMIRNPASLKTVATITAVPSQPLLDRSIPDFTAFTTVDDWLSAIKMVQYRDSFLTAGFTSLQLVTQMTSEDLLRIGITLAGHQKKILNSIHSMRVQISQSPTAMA

c-Abl (mouse) = experiment: as above
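Wherever SH2 binding enrichment of the phosphorylated peptide, bacterial display is given: peptide library displayed on the E. coli surface as eCPX fusions, selected cells deep-sequenced, score is each peptide's frequency after selection divided by its frequency in the input.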
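Wherever phosphorylation enrichment, bacterial display is given: 11-residue human phosphosite peptides and single-mutation variants displayed on the E. coli surface, counted by deep sequencing, each peptide's frequency after selection divided by its frequency in the unselected input library; frequency after pTyr selection over input frequency; kinase dosed for 20-30% of maximal phosphorylation in three min.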

| SH2 binding enrichment (c-Src SH2) | SH2 binding enrichment (Grb2 SH2) | SH2 binding enrichment (SHP2-C SH2) | Sequence | phosphorylation enrichment (Fer (mouse)) | phosphorylation enrichment (Fyn) | phosphorylation enrichment (FGFR3) | phosphorylation enrichment (Jak2) | phosphorylation enrichment (MERTK) | phosphorylation enrichment (Fes) | phosphorylation enrichment (FGFR1) | phosphorylation enrichment (c-Src) | phosphorylation enrichment (AncSZ) | phosphorylation enrichment (EPHB2) | phosphorylation enrichment (Hck) | phosphorylation enrichment (EPHB1) | phosphorylation enrichment (c-Abl (mouse)) |
| --- | --- | --- | --- | --- | --- | --- | --- | --- | --- | --- | --- | --- | --- | --- | --- | --- |
| 0.403 | 0.686 | 0.475 | SHGKQYRVPSD [HHIPL2_Y395_R394Q] | 0.354 | 0.34 | 0.427 | 0.46 | 0.347 | 0.544 | 0.344 | 0.353 | 0.54 | 0.371 | 0.4 | 0.35 | 0.512 |
| 0.432 | 0.58 | 0.564 | SHGQDYLVGNK [GSTA1_Y147] | 0.449 | 0.451 | 0.419 | 0.606 | 0.363 | 0.74 | 0.385 | 0.417 | 0.585 | 0.456 | 0.412 | 0.402 | 0.62 |
| 0.613 | 0.766 | 0.732 | SHMVNYQPFRK [TEX37_Y25_D24N_YF] | 0.355 | 0.37 | 0.364 | 0.573 | 0.358 | 0.534 | 0.347 | 0.492 | 0.528 | 0.371 | 0.405 | 0.376 | 0.504 |
| 0.716 | 0.802 | 0.975 | SILAVYSKDNF [PANK2_Y400_YF] | 0.438 | 0.862 | 0.709 | 0.867 | 0.995 | 1.69 | 0.662 | 1.94 | 0.868 | 0.76 | 0.872 | 0.58 | 0.522 |
| 0.439 | 0.94 | 0.638 | SKLTIYDGRPS [MTM1_Y277_A279G] | 0.409 | 0.539 | 0.508 | 0.589 | 0.463 | 0.674 | 0.456 | 0.612 | 0.713 | 0.499 | 1.44 | 0.367 | 0.508 |
| 1.87 | 6.7 | 1.21 | SLAARYYNWVC [FLT4_Y1230_S1235C] | 0.777 | 0.565 | 3.95 | 1.39 | 3.49 | 1.47 | 4.96 | 0.597 | 1.4 | 0.883 | 0.728 | 0.907 | 0.957 |
| 0.456 | 0.841 | 0.76 | SLNAVYPKAGS [OAS3_Y376_R378K] | 0.412 | 0.395 | 0.443 | 0.474 | 0.417 | 0.515 | 0.427 | 0.473 | 0.562 | 0.383 | 0.422 | 0.296 | 0.467 |
| 0.466 | 0.851 | 0.63 | SLNAVYPRAGR [OAS3_Y376_S381R] | 0.384 | 0.471 | 0.445 | 0.655 | 0.409 | 0.692 | 0.415 | 0.525 | 0.763 | 0.414 | 0.405 | 0.354 | 0.488 |
| 0.733 | 0.582 | 0.595 | SMEGLYSSAQD [CLIC5_Y111_T114A] | 4.7 | 2.67 | 0.908 | 1.3 | 1.52 | 1.55 | 0.522 | 3.2 | 1.51 | 1.8 | 3.19 | 1.62 | 1.05 |
| 0.405 | 0.785 | 0.45 | SNNFIYKTLGV [FAM83B_Y639_YF] | 0.421 | 0.506 | 0.555 | 0.639 | 0.394 | 0.734 | 0.484 | 0.478 | 0.637 | 0.485 | 0.572 | 0.45 | 0.631 |
| 0.824 | 1.63 | 1.69 | SPPILYSFYLN [FCRL6_Y239_D244N] | 3.7 | 2.18 | 0.882 | 1.22 | 9.41 | 1.12 | 0.807 | 2.87 | 1.21 | 4.36 | 2.06 | 3.78 | 1.5 |
| 0.437 | 0.701 | 0.577 | SQAPGYSFTAA [CYCS_Y47_G42S_YF] | 0.546 | 0.443 | 0.53 | 0.673 | 0.49 | 0.701 | 0.417 | 0.414 | 0.673 | 0.465 | 0.362 | 0.433 | 0.764 |
| 0.608 | 0.846 | 0.771 | SQINLYQDVML [ZNF806_Y33_A28S] | 13.9 | 0.965 | 1.06 | 0.847 | 1.81 | 2.48 | 1.01 | 0.934 | 1.02 | 5.9 | 1.6 | 13.2 | 0.752 |

| Sequence | SH2 binding enrichment (c-Src SH2) | SH2 binding enrichment (Grb2 SH2) | SH2 binding enrichment (SHP2-C SH2) | phosphorylation enrichment (Fer (mouse)) | phosphorylation enrichment (Fyn) | phosphorylation enrichment (FGFR3) | phosphorylation enrichment (Jak2) | phosphorylation enrichment (MERTK) | phosphorylation enrichment (Fes) | phosphorylation enrichment (FGFR1) | phosphorylation enrichment (c-Src) | phosphorylation enrichment (AncSZ) | phosphorylation enrichment (EPHB2) | phosphorylation enrichment (Hck) | phosphorylation enrichment (EPHB1) | phosphorylation enrichment (c-Abl (mouse)) |
| --- | --- | --- | --- | --- | --- | --- | --- | --- | --- | --- | --- | --- | --- | --- | --- | --- |
| SIKDKYVTALC [KCNH2_Y611_Y616C] | 0.555 | 0.918 | 0.801 | 0.467 | 0.393 | 0.81 | 0.653 | 0.346 | 0.695 | 0.376 | 0.386 | 0.64 | 0.371 | 0.362 | 0.387 | 0.51 |
| SIKDKYVTAVF [KCNH2_Y611_L615V_YF] | 0.538 | 0.82 | 0.658 | 0.523 | 0.543 | 0.541 | 0.839 | 0.443 | 0.794 | 0.491 | 0.501 | 0.667 | 0.475 | 0.467 | 0.48 | 0.682 |
| SIKDKYVTVLY [KCNH2_Y611_A614V] | 1.06 | 0.99 | 2.27 | 0.512 | 0.598 | 0.733 | 0.696 | 0.437 | 0.903 | 0.68 | 0.403 | 0.836 | 0.506 | 0.455 | 0.519 | 0.594 |
| SIKGKYVTALF [KCNH2_Y611_D609G_YF] | 0.735 | 0.988 | 0.806 | 0.525 | 0.406 | 0.449 | 0.77 | 0.414 | 0.798 | 0.361 | 0.495 | 0.771 | 0.409 | 0.408 | 0.519 | 0.617 |
